The test system of data set [1] is anti-quadruplex monoclonal autoantibody me^v-alphaQ1 (Mus musculus). Kind of data set: filter. The conditions noted are these: RIFB, Scatchard, TEP buffer 150 mM KCl, 37 C.
The test system is the same in data set [2]. In words: FP filter. The conditions noted are these: nitrocellulose filter binding (RIFB), Scatchard; TEP buffer 50 mM Tris pH 7.4, 5 mM EDTA, 150 mM KCl, 37 C; Ka 2.7e6 M^-1 in table (text prints 2.7e5).

As usually defined, the Kd is the equilibrium constant for the complex coming apart. For the substance “CCCCTTTGGGGTTTGGGG [d(C4T3G4T3G4) triplex]”, in data set [1] (Ka 5.0e5 M^-1), the equilibrium dissociation constant (Kd) came out at 2000 nM.

In turn, “CGCGCGCGCG (double strand) [d(CG5)2 duplex]” came in with a dissociation constant (Kd) in data set [1] (Ka 3.8e5 M^-1, negative control in screening) of 2600 nM.

As to CGCGGGGGCG [d(CGC G4 GCG)4 quadruplex], in data set [1] (Ka 1.6e6 M^-1), the Kd was 630 nM.

In the case of “GGGGTTTGGGGTTTCCCC [d(G4T3G4T3C4) triplex]”, the Kd in data set [1] (Ka 6.8e5 M^-1) is 1500 nM.

In data set [1] (Ka 2.5e6 M^-1), TGGGG [d(TG4)4 quadruplex] had a Kd of 400 nM.

In data set [2], “TTGGGGTTGGGGTTGGGGTTGGGG [(TET4)4 quadruplex]” returned a Kd of 370 nM.

poly r(G) showed a Kd in data set [1] (Ka 4.0e5 M^-1) of 2500 nM.

For the origin of these results see patent publication US6001657.
